Data taken from publication doi:10.1101/2020.11.23.395327.

Key:
[1] = target: PII(WT)-His, signaling protein PII from Synechocystis sp. PCC 6803 (Synechocystis sp. PCC 6803) (UniProt Q55247); test: BLI
[2] = target: PII(S49E), phosphomimetic variant (Synechocystis sp. PCC 6803) (UniProt Q55247); test: BLI

Substance | Kd [1] [µM] | Kd [2] [µM] | binding signal, fold lower than that of GST-PirA [1] [fold]
GST-PirA (GST-tagged PII-interacting regulator of arginine synthesis, Ssr0692) (natural protein) | 2.9 | 2.5 | 
tag-free PirA (natural protein) |  |  | 6
